Columns and labels:
dpo3b_bacsu dnaN = dpo3b_bacsu dnaN (UniProt P05649)
acub_bacsu acuB = acub_bacsu acuB (UniProt P39066)
dnaa_bacsu dnaA = dnaa_bacsu dnaA (UniProt P05648)
tlpa_bacsu tlpA = tlpa_bacsu tlpA (UniProt P39216)
tlpa_bacsu tlpA, sequence (P39216 whole entry): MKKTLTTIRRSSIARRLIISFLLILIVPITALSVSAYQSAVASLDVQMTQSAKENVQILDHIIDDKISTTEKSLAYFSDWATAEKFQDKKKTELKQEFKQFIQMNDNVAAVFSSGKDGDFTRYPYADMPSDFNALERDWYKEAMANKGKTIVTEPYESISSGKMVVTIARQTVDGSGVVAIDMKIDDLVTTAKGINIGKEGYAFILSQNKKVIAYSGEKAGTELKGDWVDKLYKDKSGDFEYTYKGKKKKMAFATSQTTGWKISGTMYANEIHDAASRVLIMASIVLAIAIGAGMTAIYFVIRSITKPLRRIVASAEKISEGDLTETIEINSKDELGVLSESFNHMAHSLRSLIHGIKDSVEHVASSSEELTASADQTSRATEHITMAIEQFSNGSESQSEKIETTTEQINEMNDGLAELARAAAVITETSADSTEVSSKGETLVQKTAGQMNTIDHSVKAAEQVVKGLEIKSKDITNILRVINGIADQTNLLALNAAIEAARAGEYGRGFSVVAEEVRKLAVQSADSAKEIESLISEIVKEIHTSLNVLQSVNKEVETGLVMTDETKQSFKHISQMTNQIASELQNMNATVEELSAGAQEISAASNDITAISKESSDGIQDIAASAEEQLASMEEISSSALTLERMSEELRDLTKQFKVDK

dnaa_bacsu dnaA, sequence (P05648 whole entry): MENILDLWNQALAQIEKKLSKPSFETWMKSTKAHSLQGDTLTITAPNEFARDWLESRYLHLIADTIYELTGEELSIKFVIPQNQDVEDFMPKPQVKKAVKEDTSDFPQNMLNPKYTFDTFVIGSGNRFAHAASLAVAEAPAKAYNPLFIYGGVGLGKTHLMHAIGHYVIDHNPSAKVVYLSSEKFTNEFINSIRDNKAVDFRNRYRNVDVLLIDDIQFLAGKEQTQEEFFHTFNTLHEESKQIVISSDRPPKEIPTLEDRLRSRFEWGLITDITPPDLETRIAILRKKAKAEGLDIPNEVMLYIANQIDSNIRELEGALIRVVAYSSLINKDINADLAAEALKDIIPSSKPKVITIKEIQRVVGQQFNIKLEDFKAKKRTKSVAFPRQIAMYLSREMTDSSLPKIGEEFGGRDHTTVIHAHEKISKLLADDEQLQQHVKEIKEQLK
dpo3b_bacsu dnaN, sequence (P05649 whole entry): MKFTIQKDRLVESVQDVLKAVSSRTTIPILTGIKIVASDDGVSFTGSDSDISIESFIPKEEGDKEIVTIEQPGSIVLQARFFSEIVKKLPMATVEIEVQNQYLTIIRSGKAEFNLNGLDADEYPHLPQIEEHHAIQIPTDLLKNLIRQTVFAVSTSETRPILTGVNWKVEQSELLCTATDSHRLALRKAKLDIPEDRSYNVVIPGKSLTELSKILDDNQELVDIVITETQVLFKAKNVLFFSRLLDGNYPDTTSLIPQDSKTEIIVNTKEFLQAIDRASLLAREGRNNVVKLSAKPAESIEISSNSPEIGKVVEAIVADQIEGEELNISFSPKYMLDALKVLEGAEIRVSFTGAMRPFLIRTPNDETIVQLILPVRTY
acub_bacsu acuB, sequence (P39066 whole entry): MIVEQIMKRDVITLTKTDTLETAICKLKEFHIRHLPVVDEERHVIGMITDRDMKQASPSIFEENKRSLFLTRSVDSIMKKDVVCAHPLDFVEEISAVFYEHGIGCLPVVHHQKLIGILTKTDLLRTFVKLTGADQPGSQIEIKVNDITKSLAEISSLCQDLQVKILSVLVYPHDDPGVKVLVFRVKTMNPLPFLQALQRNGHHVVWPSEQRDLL

Substance | effect of a mutation on the interaction (dpo3b_bacsu dnaN) | effect of a mutation on the interaction (acub_bacsu acuB) | effect of a mutation on the interaction (dnaa_bacsu dnaA) | effect of a mutation on the interaction (tlpa_bacsu tlpA)
Replication initiation control protein YabA (Bacillus subtilis), P37542 L110P | disrupting interaction strength | – | – | –
Replication initiation control protein YabA (Bacillus subtilis), P37542 V99A | disrupting interaction strength | – | – | –
Replication initiation control protein YabA (Bacillus subtilis), P37542 L27A | disrupting interaction strength | disrupting interaction strength | disrupting interaction strength | disrupting interaction strength
Replication initiation control protein YabA (Bacillus subtilis), P37542 N85D | – | – | disrupting interaction strength | –
Replication initiation control protein YabA (Bacillus subtilis), P37542 L86P | – | – | disrupting interaction strength | –
